Assays:
Test in all cases: cell-based or functional assay
[1] = target: HIV-1 MGRM-A-004 Env (HIV-1)
[2] = target: HIV-1 MGRM-AE-008 Env (HIV-1)
[3] = target: HIV-1 MGRM-A-006 Env (HIV-1)
[4] = target: HIV-1 MGRM-AG-011 Env (HIV-1)
[5] = target: HIV-1 MGRM-A-014 Env (HIV-1)
[6] = target: HIV-1 MGRM-AG-012 Env (HIV-1)
[7] = target: HIV-1 MGRM-AG-008 Env (HIV-1)
[8] = target: HIV-1 VLGCA1 Env (HIV-1)
[9] = target: HIV-1 92TH021 Env (HIV-1)
[10] = target: HIV-1 MGRM-A-009 Env (HIV-1)
[11] = target: HIV-1 MGRM-AE-002 Env (HIV-1)
[12] = target: HIV-1 MGRM-AG-001 Env (HIV-1)
[13] = target: HIV-1 MGRM-AE-007 Env (HIV-1)
[14] = target: HIV-1 MGRM-AE-006 Env (HIV-1)
[15] = target: HIV-1 94UG103 Env (HIV-1)
[16] = target: HIV-1 MGRM-A-001 Env (HIV-1)
[17] = target: HIV-1 MGRM-A-003 Env (HIV-1)
[18] = target: HIV-1 MGRM-A-012 Env (HIV-1)
[19] = target: HIV-1 MGRM-A-008 Env (HIV-1)
[20] = target: HIV-1 92UG037 Env (HIV-1)
[21] = target: HIV-1 MGRM-A-010 Env (HIV-1)
[22] = target: HIV-1 MGRM-AG-003 Env (HIV-1)
[23] = target: HIV-1 92WR024 Env (HIV-1)
[24] = target: HIV-1 MGRM-AG-002 Env (HIV-1)
[25] = target: HIV-1 MGRM-A-005 Env (HIV-1)
[26] = target: HIV-1 MGRM-AE-004 Env (HIV-1)
[27] = target: HIV-1 92WR021 Env (HIV-1)
[28] = target: HIV-1 MGRM-A-011 Env (HIV-1)
[29] = target: HIV-1 MGRM-A-013 Env (HIV-1)
[30] = target: HIV-1 MGRM-AE-003 Env (HIV-1)
[31] = target: HIV-1 MGRM-A-002 Env (HIV-1)
[32] = target: HIV-1 94KE105 Env (HIV-1)
[33] = target: HIV-1 92RW008 Env (HIV-1)
[34] = target: HIV-1 93WR029 Env (HIV-1)
[35] = target: HIV-1 MGRM-A-007 Env (HIV-1)
[36] = target: HIV-1 93UG077 Env (HIV-1)
[37] = target: HIV-1 92WR020 Env (HIV-1)
[38] = target: HIV-1 92UG031 Env (HIV-1)
[39] = target: HIV-1 MGRM-AE-005 Env (HIV-1)
[40] = target: HIV-1 92WR009 Env (HIV-1)
[41] = target: HIV-1 MGRM-AE-001 Env (HIV-1)
[42] = target: HIV-1 MGRM-AG-009 Env (HIV-1)
[43] = target: HIV-1 MGRM-AG-005 Env (HIV-1)
[44] = target: HIV-1 MGRM-AG-006 Env (HIV-1)
[45] = target: HIV-1 CMU02 Env (HIV-1)
[46] = target: HIV-1 92WR026 Env (HIV-1)
[47] = target: HIV-1 MGRM-AG-013 Env (HIV-1)

Substance: 5123_A06 (PGT-125) (antibody)
- IC50 [1]: > 50 µg/mL
- IC50 [2]: > 50 µg/mL
- IC50 [3]: > 50 µg/mL
- IC50 [4]: > 50 µg/mL
- IC50 [5]: 13.9 µg/mL
- IC50 [6]: > 50 µg/mL
- IC50 [7]: > 50 µg/mL
- IC50 [8]: 0.078 µg/mL
- IC50 [9]: 0.006 µg/mL
- IC50 [10]: 0.009 µg/mL
- IC50 [11]: > 50 µg/mL
- IC50 [12]: > 50 µg/mL
- IC50 [13]: 0.876 µg/mL
- IC50 [14]: 0.009 µg/mL
- IC50 [15]: 0.008 µg/mL
- IC50 [16]: 12.4 µg/mL
- IC50 [17]: > 50 µg/mL
- IC50 [18]: 0.177 µg/mL
- IC50 [19]: > 50 µg/mL
- IC50 [20]: 0.005 µg/mL
- IC50 [21]: 0.004 µg/mL
- IC50 [22]: > 50 µg/mL
- IC50 [23]: 35.5 µg/mL
- IC50 [24]: > 50 µg/mL
- IC50 [25]: > 50 µg/mL
- IC50 [26]: > 50 µg/mL
- IC50 [27]: 0.005 µg/mL
- IC50 [28]: > 50 µg/mL
- IC50 [29]: 0.014 µg/mL
- IC50 [30]: 0.092 µg/mL
- IC50 [31]: 0.013 µg/mL
- IC50 [32]: 0.004 µg/mL
- IC50 [33]: 0.004 µg/mL
- IC50 [34]: > 50 µg/mL
- IC50 [35]: > 50 µg/mL
- IC50 [36]: 0.012 µg/mL
- IC50 [37]: 0.004 µg/mL
- IC50 [38]: > 50 µg/mL
- IC50 [39]: 0.01 µg/mL
- IC50 [40]: 0.144 µg/mL
- IC50 [41]: 2.95 µg/mL
- IC50 [42]: 0.026 µg/mL
- IC50 [43]: > 50 µg/mL
- IC50 [44]: 0.008 µg/mL
- IC50 [45]: > 50 µg/mL
- IC50 [46]: 0.007 µg/mL
- IC50 [47]: 0.004 µg/mL

Substance: 5141_B17 (PGT-126) (antibody)
- IC50 [1]: > 50 µg/mL
- IC50 [2]: > 50 µg/mL
- IC50 [3]: > 50 µg/mL
- IC50 [4]: 24.5 µg/mL
- IC50 [5]: 0.01 µg/mL
- IC50 [6]: > 50 µg/mL
- IC50 [7]: > 50 µg/mL
- IC50 [8]: > 50 µg/mL
- IC50 [9]: 0.197 µg/mL
- IC50 [10]: 0.004 µg/mL
- IC50 [11]: > 50 µg/mL
- IC50 [12]: > 50 µg/mL
- IC50 [13]: > 50 µg/mL
- IC50 [14]: 17.3 µg/mL
- IC50 [15]: 0.008 µg/mL
- IC50 [16]: > 50 µg/mL
- IC50 [17]: > 50 µg/mL
- IC50 [18]: 0.097 µg/mL
- IC50 [19]: > 50 µg/mL
- IC50 [20]: 0.011 µg/mL
- IC50 [21]: 0.002 µg/mL
- IC50 [22]: > 50 µg/mL
- IC50 [23]: 42 µg/mL
- IC50 [24]: > 50 µg/mL
- IC50 [25]: > 50 µg/mL
- IC50 [26]: > 50 µg/mL
- IC50 [27]: 0.006 µg/mL
- IC50 [28]: > 50 µg/mL
- IC50 [29]: 0.006 µg/mL
- IC50 [30]: > 50 µg/mL
- IC50 [31]: 0.015 µg/mL
- IC50 [32]: 0.006 µg/mL
- IC50 [33]: 0.008 µg/mL
- IC50 [34]: > 50 µg/mL
- IC50 [35]: > 50 µg/mL
- IC50 [36]: 0.02 µg/mL
- IC50 [37]: 0.006 µg/mL
- IC50 [38]: > 50 µg/mL
- IC50 [39]: 0.324 µg/mL
- IC50 [40]: > 50 µg/mL
- IC50 [41]: 9.68 µg/mL
- IC50 [42]: 0.03 µg/mL
- IC50 [43]: 1.21 µg/mL
- IC50 [44]: 0.01 µg/mL
- IC50 [45]: > 50 µg/mL
- IC50 [46]: 0.008 µg/mL
- IC50 [47]: 0.008 µg/mL

Substance: 5145_B14 (PGT-127) (antibody)
- IC50 [1]: > 50 µg/mL
- IC50 [2]: > 50 µg/mL
- IC50 [3]: > 50 µg/mL
- IC50 [4]: > 50 µg/mL
- IC50 [5]: 0.24 µg/mL
- IC50 [6]: > 50 µg/mL
- IC50 [7]: > 50 µg/mL
- IC50 [8]: > 50 µg/mL
- IC50 [9]: > 50 µg/mL
- IC50 [10]: 0.013 µg/mL
- IC50 [11]: > 50 µg/mL
- IC50 [12]: > 50 µg/mL
- IC50 [13]: > 50 µg/mL
- IC50 [14]: > 50 µg/mL
- IC50 [15]: 0.017 µg/mL
- IC50 [16]: > 50 µg/mL
- IC50 [17]: > 50 µg/mL
- IC50 [18]: 0.105 µg/mL
- IC50 [19]: > 50 µg/mL
- IC50 [20]: 0.014 µg/mL
- IC50 [21]: 0.017 µg/mL
- IC50 [22]: > 50 µg/mL
- IC50 [23]: > 50 µg/mL
- IC50 [24]: > 50 µg/mL
- IC50 [25]: > 50 µg/mL
- IC50 [26]: > 50 µg/mL
- IC50 [27]: 0.011 µg/mL
- IC50 [28]: > 50 µg/mL
- IC50 [29]: 0.029 µg/mL
- IC50 [30]: > 50 µg/mL
- IC50 [31]: 9.42 µg/mL
- IC50 [32]: 0.023 µg/mL
- IC50 [33]: 0.012 µg/mL
- IC50 [34]: > 50 µg/mL
- IC50 [35]: > 50 µg/mL
- IC50 [36]: 0.055 µg/mL
- IC50 [37]: 0.01 µg/mL
- IC50 [38]: > 50 µg/mL
- IC50 [39]: > 50 µg/mL
- IC50 [40]: > 50 µg/mL
- IC50 [41]: > 50 µg/mL
- IC50 [42]: 0.059 µg/mL
- IC50 [43]: > 50 µg/mL
- IC50 [44]: 0.021 µg/mL
- IC50 [45]: > 50 µg/mL
- IC50 [46]: 0.024 µg/mL
- IC50 [47]: 0.018 µg/mL
